Binding result and EC50 data for 29 molecules are collected here from patent US20170298106A1 (ZYNGENIA, published 2017).

Usually EC50 stands for the concentration at which the effect is half-maximal. Low values mean a more potent agent, high ones a less potent agent.

Where no end group is shown, it is not given here. MBP = maltose binding protein (MBP), fused to the peptide

The target of one assay is insulin receptor (UniProt P06213-2 28-944, limits assumed). Kind of assay: not described.
Assay [1] addresses T1, insulin-like growth factor-I receptor (IGF1R) (UniProt P08069 31-932, limits assumed).
T1 construct: also called immobilized IGF-1R
Nature of the assay: ELISA, coated antigen, absorbance at 405 nm, one condition per construct, BSA-coated wells as control; the bar labelled Antigen is the antigen of the MRD of the construct, here IGF1R (RP). Background: An ELISA detects its analyte on a solid surface through an enzyme-linked reagent.

Assay [2] has as its target T2, angiopoietin-2 (Ang2) (human, UniProt O15123 68-496, limits assumed).
T2 construct: Plain and biotinylated Ang2 are kept as one molecule; also called rhAng2; recombinant Ang2
T2 sequence (looked up): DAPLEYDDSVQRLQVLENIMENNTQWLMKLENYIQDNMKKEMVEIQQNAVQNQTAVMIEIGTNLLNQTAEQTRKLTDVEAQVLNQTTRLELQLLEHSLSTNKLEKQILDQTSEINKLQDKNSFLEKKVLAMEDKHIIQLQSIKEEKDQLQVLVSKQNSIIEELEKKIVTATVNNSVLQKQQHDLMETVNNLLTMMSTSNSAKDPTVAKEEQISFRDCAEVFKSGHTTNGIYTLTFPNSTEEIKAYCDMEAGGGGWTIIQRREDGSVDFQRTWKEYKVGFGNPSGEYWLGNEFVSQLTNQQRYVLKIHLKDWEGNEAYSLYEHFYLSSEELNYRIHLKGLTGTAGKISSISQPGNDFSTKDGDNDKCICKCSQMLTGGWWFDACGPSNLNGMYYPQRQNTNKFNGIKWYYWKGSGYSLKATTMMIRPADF
Nature of the assay: binding of MBP fusion to Ang2.

Assay [3] deals with T2, angiopoietin-2 (Ang2). Kind of assay: ELISA on rhAng2-coated wells, MRD-MBP fusion, anti-MBP detection; EC50 by 4 parameter fit. As for the experimental part:
MBP fusion proteins were serially diluted in Blocking buffer and added to wells for 2 hours at RT. After washing (8×300 μl wash buffer), samples were treated with HRP-mouse anti MBP mAb (NEB, cat # E8038S), diluted 1:4000 in Blocking buffer. After incubation for 1 hour at RT, wells were washed (8×300 μl wash buffer) prior to receiving 100 μl of TMB substrate (KPL Laboratories). Color development was stopped with 100 μl of H₂SO₄, and absorbance was read at 450 nm.
Bound fusion proteins were detected with anti-MBP mAb. Assayed proteins represent mutational variants of the sequence […] […] (L17D) (SEQ ID NO:107). In this series, the motif MDD within L17D was mutated at the first D to all other possible amino acids (except cysteine). Other MRDs tested were “Lm32 KtoS” and a dimer of Lm32 (2×Lm32).

The target in another assay is T3, VEGF (human, UniProt P15692-4 27-191).
T3 construct: also called human VEGF
T3 sequence (P15692 other isoform, or with tags, fused parts or gaps limits assumed): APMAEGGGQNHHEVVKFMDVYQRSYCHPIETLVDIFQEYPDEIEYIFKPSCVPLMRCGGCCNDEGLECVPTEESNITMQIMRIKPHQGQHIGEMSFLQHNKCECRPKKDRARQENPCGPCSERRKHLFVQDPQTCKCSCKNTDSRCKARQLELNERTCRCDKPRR
Kind of assay: ELISA, human VEGF coated (30 ng/ml), sample diluted in 3.876 ug/ml biotinylated Ang2, detection with HRP anti-human kappa chain mAb, A450. The method, then:
Ninety-six-well plates were coated overnight with human VEGF (PeproTech, Inc. cat#100-20) at 30 ng/ml (100 μl/well). […] After washing (8×300 μl wash buffer), parallel samples received either HRP-conjugated anti-human kappa chain mAb (Abeam, cat # ab79115) diluted 1:1000 in Blocking buffer or HRP-conjugated streptavidin (Thermo Scientific cat#N100) diluted 1:4000 diluted in Blocking buffer. After incubation for 1 hour at RT, wells were washed (8×300 μl wash buffer) prior to receiving 100 μl of TMB substrate (KPL Laboratories). Color development was stopped with 100 μl of H₂SO₄, and absorbance was read at 450 nm.

The next assay deals with T4, integrin αvβ3 (UniProt P06756 31-992; P05106 27-718, limits assumed).
T4 construct: Antigen of the ELISAs
T4 sequence (P06756 31-992 limits assumed, chain 1 of 2): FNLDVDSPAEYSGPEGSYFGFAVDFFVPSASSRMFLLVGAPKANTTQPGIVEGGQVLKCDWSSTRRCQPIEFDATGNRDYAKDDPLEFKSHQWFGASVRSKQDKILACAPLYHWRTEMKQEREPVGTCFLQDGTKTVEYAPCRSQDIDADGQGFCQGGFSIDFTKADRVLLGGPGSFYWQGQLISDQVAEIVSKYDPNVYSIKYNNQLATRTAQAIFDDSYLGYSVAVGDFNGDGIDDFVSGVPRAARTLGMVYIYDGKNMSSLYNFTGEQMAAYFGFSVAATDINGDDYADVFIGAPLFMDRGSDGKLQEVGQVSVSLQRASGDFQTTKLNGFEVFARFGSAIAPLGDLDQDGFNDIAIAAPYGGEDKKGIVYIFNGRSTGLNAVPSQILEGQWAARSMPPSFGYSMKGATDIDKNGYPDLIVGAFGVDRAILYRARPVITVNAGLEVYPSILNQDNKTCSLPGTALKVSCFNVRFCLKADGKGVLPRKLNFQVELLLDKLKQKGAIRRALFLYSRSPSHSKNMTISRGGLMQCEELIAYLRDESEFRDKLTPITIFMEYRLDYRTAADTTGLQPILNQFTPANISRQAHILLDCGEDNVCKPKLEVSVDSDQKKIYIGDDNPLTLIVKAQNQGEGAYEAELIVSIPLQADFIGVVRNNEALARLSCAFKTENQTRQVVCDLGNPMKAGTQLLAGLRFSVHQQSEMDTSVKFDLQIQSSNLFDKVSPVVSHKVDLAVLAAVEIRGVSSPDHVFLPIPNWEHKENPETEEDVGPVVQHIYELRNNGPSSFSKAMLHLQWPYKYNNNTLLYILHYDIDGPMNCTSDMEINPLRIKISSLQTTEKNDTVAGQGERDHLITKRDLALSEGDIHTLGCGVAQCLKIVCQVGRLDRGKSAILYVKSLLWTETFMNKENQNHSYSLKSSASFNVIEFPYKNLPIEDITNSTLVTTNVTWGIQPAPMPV
T4 sequence (P05106 27-718 limits assumed, chain 2 of 2): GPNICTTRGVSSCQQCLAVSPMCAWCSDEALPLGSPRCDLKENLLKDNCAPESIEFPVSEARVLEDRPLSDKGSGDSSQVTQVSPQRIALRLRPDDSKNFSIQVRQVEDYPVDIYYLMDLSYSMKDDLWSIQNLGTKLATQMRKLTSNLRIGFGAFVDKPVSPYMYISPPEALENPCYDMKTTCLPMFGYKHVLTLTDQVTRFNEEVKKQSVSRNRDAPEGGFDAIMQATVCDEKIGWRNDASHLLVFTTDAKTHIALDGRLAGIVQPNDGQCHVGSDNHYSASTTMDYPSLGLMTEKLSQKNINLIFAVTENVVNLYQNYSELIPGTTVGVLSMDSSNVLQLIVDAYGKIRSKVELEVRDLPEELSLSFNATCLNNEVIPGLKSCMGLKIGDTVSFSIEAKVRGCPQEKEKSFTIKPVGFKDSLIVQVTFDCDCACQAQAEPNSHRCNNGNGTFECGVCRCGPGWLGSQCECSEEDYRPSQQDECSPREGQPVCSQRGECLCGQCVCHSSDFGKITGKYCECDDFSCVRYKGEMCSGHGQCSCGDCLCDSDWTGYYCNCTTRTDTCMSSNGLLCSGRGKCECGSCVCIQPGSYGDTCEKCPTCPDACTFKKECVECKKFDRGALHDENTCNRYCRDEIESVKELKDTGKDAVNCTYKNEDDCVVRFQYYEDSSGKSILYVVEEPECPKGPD
Kind of assay: ELISA, coated antigen, absorbance at 405 nm, one condition per construct, BSA-coated wells as control; the bar labelled Antigen is the antigen of the MRD of the construct, here integrin avb3.

insulin receptor, sequence (P06213 other isoform, or with tags, fused parts or gaps limits assumed): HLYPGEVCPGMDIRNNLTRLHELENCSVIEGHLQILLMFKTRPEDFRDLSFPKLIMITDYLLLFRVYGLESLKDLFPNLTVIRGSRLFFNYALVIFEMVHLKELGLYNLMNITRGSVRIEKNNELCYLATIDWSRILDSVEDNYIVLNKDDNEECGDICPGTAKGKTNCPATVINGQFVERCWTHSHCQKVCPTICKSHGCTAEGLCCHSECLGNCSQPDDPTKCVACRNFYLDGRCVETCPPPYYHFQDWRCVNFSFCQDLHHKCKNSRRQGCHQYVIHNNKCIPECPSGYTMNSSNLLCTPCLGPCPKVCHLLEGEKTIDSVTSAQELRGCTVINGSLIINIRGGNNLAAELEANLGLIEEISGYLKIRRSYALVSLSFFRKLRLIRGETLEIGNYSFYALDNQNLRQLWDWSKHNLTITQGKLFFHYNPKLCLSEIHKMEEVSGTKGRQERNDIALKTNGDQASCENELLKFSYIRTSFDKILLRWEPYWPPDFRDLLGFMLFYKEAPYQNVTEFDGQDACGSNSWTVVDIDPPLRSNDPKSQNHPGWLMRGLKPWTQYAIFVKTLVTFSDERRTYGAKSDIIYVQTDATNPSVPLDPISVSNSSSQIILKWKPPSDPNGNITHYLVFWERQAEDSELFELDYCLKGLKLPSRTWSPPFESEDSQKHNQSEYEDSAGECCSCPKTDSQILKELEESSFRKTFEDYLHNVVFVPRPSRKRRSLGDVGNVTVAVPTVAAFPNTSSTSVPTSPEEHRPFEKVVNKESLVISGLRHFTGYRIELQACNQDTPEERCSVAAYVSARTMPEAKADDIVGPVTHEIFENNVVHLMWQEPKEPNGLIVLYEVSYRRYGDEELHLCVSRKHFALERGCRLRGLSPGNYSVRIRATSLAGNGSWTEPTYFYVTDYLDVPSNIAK

B1: Rm4-310 (peptide)
peptide: NFYQCIERLVTGPAEKSRGQWQECRTGG
For B1, in the assay with insulin receptor, the binding result is “no binding”.

B2: Rm4-319 (peptide)
peptide: NFYQCIEALSRSPAEKSRGQWQECRTGG
Take B2: the binding result in the assay with insulin receptor is listed as “no binding”.

B3: Rm4-39 (peptide)
peptide: NFYQCIDLLMAYPAEKSRGQWQECRTGG
On to B3, for which, in the assay with insulin receptor, the binding result is reported as “no binding”.

B4: Rm4-33 (peptide)
peptide: NFYQCIEQLALRPAEKSRGQWQECRTGG
As to B4, the binding result with insulin receptor was “no binding”.

B5: Rm4-410 (peptide)
peptide: NFYQCIEVFWGRPAEKSRGQWQECRTG
As to B5, the binding result in the assay with insulin receptor is listed as “no binding”.

B6: Rm4-45 (peptide)
peptide: NFYQCIESLAGGPAEKSRGQWQECRTG
As to B6, the binding result with insulin receptor was “no binding”.

B7: Her-1L-RP (bispecific antibody, not shown: a dimerising Fc or GST)
light (part 1 of 2): not shown
light (part 2 of 2): SSGGGGSGGGGGGSSRSSSFYSCLESLVNGPAEKSRGQWDGCRKK
VH: not shown
notes: Her = HERCEPTIN
Consider B7, for which, in assay [1], the binding result is given as “no binding”.

B8: Rm4-417 (peptide)
peptide: NFYQCIEALARTPAEKSRGQWVECRAP
B8: in the assay with insulin receptor, the binding result is recorded as “no binding”.

B9: MBP fusion of LM32 variant SEQ ID NO:90 (other, not shown: large carriers)
peptide: {MBP}-KSLSLSPGSGGGSMGAQTNFMPMDNDEALLYEQFILQQGLE
modifications: also: N-terminal MBP fusion, not in chain
For B9, the EC50 in the assay with angiopoietin-2 (Ang2) [2] was 0.182 nM.

B10: MBP fusion of LM32 variant SEQ ID NO:96 (other, not shown: large carriers)
chain: {MBP}-KSLSLSPGSGGGSMGAQTNFMPMDNDEGLLYEEFILQQGLE
modifications: also: N-terminal MBP fusion, not in chain
B10: the EC50 with angiopoietin-2 (Ang2) [2] turned out to be 0.922 nM.

B11: MBP fusion of LM32 variant SEQ ID NO:100 (other, not shown: large carriers)
chain: {MBP}-KSLSLSPGSGGGSMGAQTNFMPMDDDELLLYEQFILQQGLE
modifications: also: N-terminal MBP fusion, not in chain
The molecule B11 yielded an EC50 with angiopoietin-2 (Ang2) [2] of 0.24 nM.

B12: MBP fusion of LM32 variant SEQ ID NO:99 (other, not shown: large carriers)
chain: {MBP}-KSLSLSPGSGGGSMGAQTNFMPMDQDELLLYEQFILQQGLE
modifications: also: N-terminal MBP fusion, not in chain
Consider B12, for which the EC50 in the assay with angiopoietin-2 (Ang2) [2] is 0.383 nM.

B13: MBP fusion of LM32 variant SEQ ID NO:94 (other, not shown: large carriers)
chain: {MBP}-KSLSLSPGSGGGSMGAQTNFMPMDNDEALLYEQFIYQQGLE
modifications: also: N-terminal MBP fusion, not in chain
Molecule B13 gave an EC50 with angiopoietin-2 (Ang2) [2] of 0.392 nM.

B14: MBP fusion of LM32 variant SEQ ID NO:97 (other, not shown: large carriers)
chain: {MBP}-KSLSLSPGSGGGSMGAQTNFMPMDNDEALLYEEFILQQGLE
modifications: also: N-terminal MBP fusion, not in chain
As for B14, in the assay with angiopoietin-2 (Ang2) [2], the half-maximal effective concentration (EC50) amounted to 0.426 nM.

B15: MBP fusion of LM32 variant SEQ ID NO:91 (other, not shown: large carriers)
chain: {MBP}-KSLSLSPGSGGGSMGAQTNFMPMDNDELTLYEQFILQQGLE
modifications: also: N-terminal MBP fusion, not in chain
In the assay with angiopoietin-2 (Ang2) [2], B15 returned an EC50 of 1.42 nM.

B16: MBP fusion of LM32 variant SEQ ID NO:93 (other, not shown: large carriers)
chain: {MBP}-KSLSLSPGSGGGSMGAQTNFMPMDNDEGLLYEQFIYQQGLE
modifications: also: N-terminal MBP fusion, not in chain
The molecule B16 showed an EC50 with angiopoietin-2 (Ang2) [2] of 0.902 nM.

B17: Rm4-411 (peptide)
peptide: NFYQCIEQLSSGPAEKSRGQWQECRTG
With B17, in the assay with insulin receptor, the binding result was “no binding”.

B18: MBP fusion of LM32 variant SEQ ID NO:32 (other, not shown: large carriers)
peptide: {MBP}-KSLSLSPGSGGGSMGAQTNFMPMDNDELLLYEQFI
modifications: also: N-terminal MBP fusion, not in chain
As to B18, in the assay with angiopoietin-2 (Ang2) [2], a half-maximal effect (EC50) was put at 1.08 nM.

B19: MBP fusion of LM32 variant SEQ ID NO:33 (other, not shown: large carriers)
peptide: {MBP}-KSLSLSPGSGGGSMGAQTNFMPMDNEELLLYEQFI
modifications: also: N-terminal MBP fusion, not in chain
In the assay with angiopoietin-2 (Ang2) [2], B19 yielded an EC50 of 20.7 nM.

B20: Rm4-415 (peptide)
peptide: NFYQCIELLSARPAEKSRGQWAECRAG
With B20, the binding result in the assay with insulin receptor was “no binding”.

B21: Rm4-316 (peptide)
peptide: NFYQCIEALQSRPAEKSRGQWQECRTGG
For B21, the binding result with insulin receptor is “no binding”.

B22: Rm4-44 (peptide)
peptide: NFYQCIEHLSGSPAEKSRGQWQECRTG
B22: the binding result in the assay with insulin receptor is reported as “no binding”.

B23: Rm4-31 (peptide)
peptide: NFYQCIEMLASHPAEKSRGQWQECRTGG
As to B23, the binding result with insulin receptor is “no binding”.

B24: Lm32 KtoS-MBP fusion (other, not shown: small tags and cut ends)
peptide: {MBP}-PGSGGGSMGAQTNFMPMDNDELLLYEQFILQQGLE
modifications: also: N-terminal MBP fusion, not in chain
As for B24, the 50% effective concentration (EC50) with angiopoietin-2 (Ang2) [3] was found to be 0.199 nM.

B25: Rm4-46 (peptide)
peptide: NFYQCIEALVGVPAEKSRGQWQECRTG
Take B25: in the assay with insulin receptor, the binding result is “no binding”.

B26: HER-lm32(H) (bispecific antibody, not shown: a dimerising Fc or GST)
heavy (part 1 of 2): not shown
heavy (part 2 of 2): KSLSLSPGKGGGSMGAQTNFMPMDNDELLLYEQFILQQGLE
VL: not shown
notes: also called HERCEPTIN-lm32 fusion; HERCEPTIN lm-32
On to B26, for which the binding result in the assay with VEGF is listed as “no binding (tested: about 20 nM)”.

B27: Rm4-314 (peptide)
peptide: NFYQCIEYLAMKPAEKSRGQWQECRTGG
Take B27: in the assay with insulin receptor, the binding result is “no binding”.

B28: Rm4-49 (peptide)
peptide: NFYQCIEMLSLPPAEKSRGQWQECRTG
For B28, the binding result in the assay with insulin receptor was “no binding”.

B29: Her-sL-RGD4C (bispecific antibody, not shown: a dimerising Fc or GST)
light (part 1 of 2): not shown
light (part 2 of 2): GGGSCDCRGDCFC
VH: not shown
notes: Her = HERCEPTIN
For the molecule B29, in the assay with integrin αvβ3, the binding result is given as “no binding”.
